Our source for the Kd values is paper PMC8041770, “An engineered ligand trap inhibits leukemia inhibitory factor as pancreatic cancer treatment strategy” (Communications Biology, 2021).

For this test, the target named is yeast-displayed mouse LIF (mLIF, Ser24 to Phe203) (mouse, UniProt P09056 24-203). As to the kind of experiment: flow cytometry on cells; LIF displayed on yeast (EBY100), soluble Fc fusion titrated in PBS with 1 mg/ml BSA, Fc detected with fluorescent secondary antibody; apparent Kd by non-linear regression. The note with it: one partner purified.

B1: mLIFR-Fc (mouse LIFR CBM I–Ig-like–CBM II fused to an antibody Fc domain) (Fc fusion)
chain: LKRGVQDLKCTTNNMRVWDCTWPAPLGVSPGTVKDICIKDRFHSCHPLETTNVKIPALSPGDHEVTINYLNGFQSKFTLNEKDVSLIPETPEILDLSADFFTSSLLLKWNDRGSALPHPSNATWEIKVLQNPRTEPVALVLLNTMLSGKDTVQHWNWTSDLPLQCATHSVSIRWHIDSPHFSGYKEWSDWSPLKNISWIRNTETNVFPQDKVVLAGSNMTICCMSPTKVLSGQIGNTLRPLIHLYGQTVAIHILNIPVSENSGTNIIFITDDDVYGTVVFAGYPPDVPQKLSCETHDLKEIICSWNPGRITGLVGPRNTEYTLFESISGKSAVFHRIEGLTNETYRLGVQMHPGQEIHNFTLTGRNPLGQAQSAVVINVTERVAPHDPTSLKVKDINSTVVTFSWYLPGNFTKINLLCQIEICKANSKKEVRNATIRGAEDSTYHVAVDKLNPYTAYTFRVRCSSKTFWKWSRWSDEKRHLTTEAT
notes: signal peptide in the construct; mouse LIF receptor (mLIFR), three most N-terminal extracellular domains CBM I–Ig-like–CBM II, Met1 to Thr529; also called soluble mLIFR-Fc; mLIFR mIgG2a Fc; source: Expi293F, transfected (pAdd2), purified from medium (Protein-A Sepharose)
On to B1, for which the Kd is 160 ± 20 pM.
